For data set [1] the following is noted: lyophilized from 9% sucrose, 1.7 mM EDTA, pH 5.2; 40° C. for six months; cited from earlier work.
The next data set relates to rats. Conditions: rat, in vivo; cited from earlier work.
Data set [2] in a line: thiol pKa (acid-dissociation constant). In kind it is physicochemical. Conditions: verified experimentally, data not shown. From the text: The human CF airway surface liquid is approximately 0.8 pH units more acidic than that of unaffected individuals due to the loss of bicarbonate-mediated buffering of proton secretion (Garland A L, Walton W G, Coakley R D, et al., 2013, Molecular basis for pH-dependent mucosal dehydration in cystic fibrosis airways. PNAS 110:15973-8; Shah V S, Meyerholz D K, Tang X X, et al., 2016, Airway acidification initiates host defense abnormalities in cystic fibrosis mice, Science 351:503-7). This has consequences for the clinical use of reducing agents to treat condensed, abnormal mucus. […] Cys thiol pKa values range from pH 8.5 (cysteamine) to pH 9.5 (NAC). In marked contrast to these classical thiols, the structurally-stabilized pKa of the Trx active site Cys32 is two to three logs lower (pH 6.1-6.3), allowing high activity even at acidic CF airway pH (FIG. 2).

The next data set deals with Sprague-Dawley rats. Put plainly: nebulized aerosol inhalation in rats, inflammatory potential and toxicity. The data set is classed as in vivo, rat. Conditions: for neutrophil influx (sucrose/EDTA formulation effect): nebulized aerosol; for adverse test article effects (clinical observations, BALF chemistry, cell count, differential, lung cytokines, macroscopic and microscopic findings): target delivered doses 10 mg/kg and 40 mg/kg, aerosol, 1, 4 or 20 hours post exposure. The protocol: This example evaluated and compared the in vivo inflammatory potential among three forms of C35S monothiol Trx (oxidized ORP-100, reduced ORP-100, and reduced ORP100S) formulated in the sucrose/EDTA formulation composition described in PCT WO 2006/090127 and delivered to normal rats as nebulized aerosols at doses of […] and 40 mg/kg.
All three forms of ORP-100 were lyophilized following reduction with DTT and formulated in sucrose buffer (9% sucrose 1.17 mM EDTA pH 5.2). All test articles were evaluated at low (10 mg/kg) and high (40 mg/kg) target delivered doses. The test articles were administered to Charles River Sprague-Dawley rats via inhalation as an aerosol. The aerosol of each of the test articles was produced by a commercially available vibrating mesh nebulizer whose output was attached to a nose-only exposure system.
Target doses were achieved via modulation of the aerosol exposure time while maintaining the aerosol concentration constant. Animals in Low Dose groups received a single dose of test article during a 20 minute exposure to achieve a target delivered dose of 10 mg/kg and deposited dose of 1 mg/kg. Animals in High Dose groups received a single dose of test article during a 75 minute exposure to achieve a target delivered dose of 40 mg/kg and target deposited dose of 4 mg/kg.
Animals in each study group were evaluated for potential toxicity by measuring various parameters including: clinical signs, body weight, clinical pathology (BALF cell counts, LDH and albumin measurements), lung tissue cytokines, lung weights, gross pathology, and microscopic pathology of respiratory target tissues. Additionally, three animals in each Low Dose group had lung tissues collected for immunohistochemistry (Alizèe Pathology, Thurmont, M D). Three (3) animals in each Low Dose group were to be euthanized at 1 hour and 4 hours post exposure for blood and tissue collections. Four (4) animals in each High Dose group were euthanized at 4 and 20 hours post exposure for blood and tissue collections.

Data set [3] has as its system IL-6 and TNF-alpha in HBE-ALI from healthy and CF donors. Put plainly: inflammatory cytokine release in HBE-ALI cultures (ELISA). In kind it is cell-based, human. Conditions: for effect on the inflammatory effect of saline: CF HBE-ALI. As for the experimental part:
Nasal airway epithelial cells from normal healthy volunteers or CF subjects were cultured in serum-free media at an air-liquid interface with mucociliary differentiation, based on methods adapted from the approach of Schlegel and colleagues (Suprynowicz, F. A., et al., Proc Natl Acad Sci USA, 2012, 109(49): p. 20035-40; Becker, M. N., et al., Am J Respir Crit Care Med, 2004, 169(5): p. 645-53). A number of unique CF and healthy control specimens were collected, expanded, and cryopreserved using this technique. 30 wells were cultured to differentiation at ALI for over 30 days from each of three unique normal or CF donors (homozygous for F508del). Triplicate cultures were exposed at the apical surface to PBS, native Trx, or ORP-100 and both apical and basolateral media samples were collected at 4 and 24 hours after challenge. Apical collection occurred by placing 200 uL of sterile PBS on the apical surface and recovering this after 15 min incubation. ELISA for IL-6 was performed for each sample in duplicate and others were measured using a multiplexed assay. Media was centrifuged to remove debris and stored at −80 C until ELISA analysis.
FIG. 8: Levels of IL-6 or TNFα induced after 24 hr in the basolateral ALI media of primary HBE cultures from nasal epithelia of non-CF (left series of bars) and CF donors (right series of bars). Delivery: apical-surface bolus application for 15 min of 200 uL volumes of control or test article solutions. PBS: 0.9% phosphate-buffered saline negative vehicle control (black bars); ORP100-1000: 1 mM ORP-100 in PBS (solid dark bars); […] uM ORP-100 in PBS (solid light bars); Trx-1000: 1 mM native thioredoxin-1 in PBS (dark hatched bars); Trx-100: 100 uM native thioredoxin-1 in PBS (light hatched bars). All concentrations reflect volumes delivered to the HBE apical surface.

A short description of data set [4]: stability analysis, lyophilized vs solution (DTNB and SEC-HPLC). Conditions: lyophilized form, six months at 40° C. The data set is classed as physicochemical. The protocol: Prior work, e.g. WO 2006/090127, teaches compositions for maintenance of thioredoxin in the reduced state. Significant experimentation was required to derive compositions able to keep thioredoxin reduced during storage, and these compositions were complex and required saccharide derivatives and EDTA as excipients. […] ORP-100 and ORP100S proteins were reduced with 100 mM DTT and exchanged over a NAP-5 column into volatile 20 mM ammonium acetate buffer at pH 5.5 to remove residual reductant. Half of the material was frozen at −80° C. then lyophilized while the remainder was kept in solution at either 5° C. or 40° C. for various time points (“PH5.5”). Lyophilized protein was reconstituted back into 20 mM ammonium acetate pH 5.5 immediately prior to evaluation at each time point (“Lyophilized”). Stability was assessed by measuring both free SH groups (DTNB chromogenic assay) and the percent monomers (SEC-HPLC).
For FIG. 3: PH5.5: ORP-100 or ORP100S protein maintained in liquid formulation of 20 mM ammonium acetate, pH 5.5 for 0, 3, 7, 14, 21, 28, 90, or 180 days. Lyophilized: ORP-100 or ORP100S protein stored in the lyophilized form at 5° C. or 40° C. for the 0, 3, 7, 14, 21, 28, 90, or 180 days and assayed following reconstitution in 20 mM ammonium acetate, pH 5.5. Percent free sulfhydryl (reduction state) at 5° C. Second panel: Percent monomer determined by SEC assay at 5° C. Third panel: Percent free sulfhydryl at 40° C. Fourth panel: Percent monomer determined by SEC assay at 40° C.

Substitutions are numbered along the chain they refer to.

B1: thioredoxin: native human thioredoxin-1, 12 kDa redox protein with Cys-Gly-Pro-Cys active site (protein)
chain: VKQIESKTAFQEALDAAGDKLVVVDFSATWCGPCKMIKPFFHSLSEKYSNVIFLEVDVDDCQDVASECEVKCMPTFQFFKKGQKVGEFSGANKEKLEATINELV
For the molecule B1, the “retention of starting activity” value in data set [1] is “almost complete retention of starting activity”. Moreover, the “neutrophil influx and inflammatory cytokine release” value in the data set on rats was “high levels of neutrophil influx and inflammatory cytokine release”.

B2: ORP-100: thioredoxin protein having a monothiol active site in which the cysteine at position 35 has been replaced with serine (protein, UniProt P10599 2-105, looked up, variant C35S)
Thioredoxin: B1 chain with C34S
As for B2, in data set [2], the “pKa compared to native Trx” value is recorded as “same pKa as native Trx”. Also, the “differences in BALF LDH, albumin, cell counts, differential counts and lung tissue cytokines vs. oxidized ORP-100 control groups” value in the data set on Sprague-Dawley rats (low and high dose aerosol) is “unremarkable”. For the same molecule, in the data set on Sprague-Dawley rats, the “neutrophil influx (sucrose/EDTA formulation effect)” value was “partially able to mitigate the formulation effect”; the “adverse test article effects (clinical observations, BALF chemistry, cell count, differential, lung cytokines, macroscopic and microscopic findings)” value is “no evidence of adverse test article effects”. Besides, the “effect on the inflammatory effect of saline” value in data set [3] is given as “abrogated the inflammatory effect of saline”. The “anti-inflammatory effect vs. PBS vehicle alone” value in data set [3] (concentrations above 100 uM, in normal (isotonic) PBS) is “significant anti-inflammatory effect”. Moreover, the “induction of IL-6 and TNF-alpha” value in data set [3] (reduced form, in PBS, apical application) is given as “non-inflammatory”. Besides, the “storage stability (free SH, percent monomer)” value in data set [4] is reported as “excellent storage stability”.

B3: oxidized ORP-100: oxidized form of ORP-100, control lacking thioredoxin activity (protein, UniProt P10599 2-105, looked up, variant C35S)
Thioredoxin: B1 chain with C34S
modifications: oxidized
For B3, in the data set with Sprague-Dawley rats, the “neutrophil influx (sucrose/EDTA formulation effect)” value is listed as “induced”; the “adverse test article effects (clinical observations, BALF chemistry, cell count, differential, lung cytokines, macroscopic and microscopic findings)” value is listed as “no evidence of adverse test article effects”. Besides, the “effect on the inflammatory effect of saline” value in data set [3] is on record as “not”.

B4: oxidized thioredoxin: oxidized thioredoxin inactive protein control of Rancourt et al. 2007 (protein, UniProt P10599 2-105, looked up)
Thioredoxin: B1 chain
modifications: oxidized
As for B4, the “BALF cell count and cytokine results” value with rats was “identical BALF cell count and cytokine results as normal saline alone”.

These data come from patent US20230071765A1, “COMPOSITIONS HAVING THIOREDOXIN ACTIVITY AND RELATED METHODS” (ORPRO THERAPEUTICS, INC., priority 2020, published 2023).
